19 substances from patent publication US20250296982A1 can be followed below.

Some results are limits rather than exact numbers.

As a reminder, the EC50 is the concentration giving half of the maximal effect. As usually defined, the Kd is the constant that tells how readily two partners part at equilibrium. A word on the EC50 (read off the curve): it is the concentration needed to bring the measured effect to its halfway point.

The target in assay [1] is TRIM21-GST (Antibodies Online catalogue #ABIN1323621) (UniProt P19474). The assay can be described thus: ELISA, antibody coated, TRIM21-GST titrated; reference WT. Background: In an ELISA, binding on a coated surface is turned into a signal by an enzyme label.
Assay [2] has as its target recombinant human FcRn (human α-FcRn with a 6× histidine tag on the C-terminus, co-expressed with human β2M) (human) (UniProt P55899). The assay can be described thus: biolayer interferometry (Octet): antibody on anti-CH1 biosensor, recombinant FcRn in solution, pH 6.0; fold change against IgG with WT Fc. On the technique in general: Biolayer interferometry detects binding as a change in optical thickness at a sensor tip.

The target in assay [3] is TRIM21-GST (Antibodies Online catalogue #ABIN1323621) (UniProt P19474). The assay can be described thus: ELISA: antibody coated at 25 µg/mL, TRIM21-GST titrated, EC50 = midpoint of the 4PL fit.
Assay [4] addresses recombinant human FcRn (human α-FcRn with a 6× histidine tag on the C-terminus, co-expressed with human β2M) (human) (UniProt P55899). The assay can be described thus: biolayer interferometry (Octet): antibody on anti-CH1 tip, FcRn in solution, pH 6.0.
Assay [5] addresses full-length, membrane-bound FcRn heterodimer (FcRn alpha and β2m) on transiently transfected Expi293 cells (UniProt P55899). The assay is described as follows: cell-based competition at pH 6.0, flow cytometry: FcRn-expressing cells, dilutions of IgG against a fixed concentration of labelled Fc competitor Fc-A488. (In flow cytometry, cells or beads pass a laser one at a time.)
The target of assay [6] is FcγRIIIa (UniProt P08637).
The target of assay [7] is C1q of the low toxicity guinea pig complement used in the CDC assay (Cedarlane Laboratories Product #CL4051) (guinea pig).
Assay [8] has as its target recombinant human FcRn (human α-FcRn with a 6× histidine tag on the C-terminus, co-expressed with human β2M) (human) (UniProt P55899). The assay is described as follows: biolayer interferometry (Octet): antibody on anti-CH1 biosensor, recombinant FcRn in solution, pH 6.0; reference of the fold changes.
The target of assay [9] is FcγRIIIa (UniProt P08637). The assay is described as follows: plate binding assay, O.D. 650 against antibody concentration (format not described in Example 4).
In assay [10] the target is FcγRIIIa (UniProt P08637). The assay can be described thus: ELISA: FcγRIIIA coated, antibody titrated.

“Motavizumab with Fc variant FcMut228 (T256D_N286D_T307R_Q311V_A378V) (antibody)” displayed a TRIM21 binding EC50, fold of WT EC50 in assay [1] below 1.5 fold. Further, in [2], the kd (fold decrease*) amounted to 12.4 fold, the koff (fold decrease*) was found to be 4 fold and the kon (fold increase*) worked out at 3.2 fold. For the same substance, in assay [3], the EC50 was found to be 10400 ng/mL.
Regarding “antibody molecule with Fc variant FcMut008 (T256D_T307R)”, the Kd in [4] came to 383 nM. This substance returned an IC50 (read off the curve) in assay [5] of 100 nM.
In assay [1], “Motavizumab with Fc variant FcMut183 (T256D_Q311V_A378V) (antibody)” showed a TRIM21 binding EC50, fold of WT EC50 below 1.5 fold. Moreover, in assay [2], the kd (fold decrease*) worked out at 11 fold, the koff (fold decrease*) worked out at 3.2 fold and the kon (fold increase*) came to 3.2 fold. The substance further came in with an EC50 in [3] of 7410 ng/mL.
On to “Rituximab with Fc variant FcMut197 (H285N_T307Q_N315D) (antibody)”, for which the EC50 (ADCC reporter bioassay, CD20+ WIL2-S target cells) with FcγRIIIa [6] was determined as 8.3 ng/mL. In assay [7], this substance showed an EC50 (CDC, CD20+ Raji cells with guinea pig complement) of 2.54 ng/mL.
As to “Rituximab with Fc variant FcMut215 (T307Q_Q311V_A378V) (antibody)”, in the assay with FcγRIIIa [6], the EC50 (ADCC reporter bioassay, CD20+ WIL2-S target cells) was 2.73 ng/mL. Also, the EC50 (CDC, CD20+ Raji cells with guinea pig complement) in assay [7] amounted to 0.141 ng/mL.
For “Motavizumab with Fc variant FcMut215 (T307Q_Q311V_A378V) (antibody)”, in [1], the TRIM21 binding EC50, fold of WT EC50 was below 1.5 fold. Moreover, in [2], the kd (fold decrease*) turned out to be 12.4 fold, the koff (fold decrease*) came out at 3.7 fold and the kon (fold increase*) came out at 3.4 fold. The same substance gave an EC50 in [3] of 7800 ng/mL.
Consider “Motavizumab with wild-type Fc (antibody)”, for which, in assay [8], the kd (fold decrease*) amounted to 1 fold, the koff (fold decrease*) turned out to be 1 fold and the kon (fold increase*) was found to be 1 fold. This substance also registered a concentration for a half-maximal effect (EC50) in assay [3] of 8500 ng/mL.
The substance “Rituximab with Fc variant FcMut183 (T256D_Q311V_A378V) (antibody)” yielded an EC50 (ADCC reporter bioassay, CD20+ WIL2-S target cells) with FcγRIIIa [6] of 3.92 ng/mL. Besides, the EC50 (CDC, CD20+ Raji cells with guinea pig complement) in assay [7] was found to be 0.103 ng/mL.
For the substance “antibody molecule with Fc variant FcMut015 (D376Q_M428L)”, in assay [4], the Kd was 287 nM. This substance yielded an IC50 (read off the curve) in [5] of 90 nM.
Take LS (Xencor) (antibody): in assay [2], the kd (fold decrease*) was 9.2 fold, the koff (fold decrease*) is 3.6 fold and the kon (fold increase*) stood at 2.6 fold. The substance further had an EC50 in assay [3] of 14500 ng/mL.
On to LS (antibody), for which the EC50 (read off the curve) in the assay with FcγRIIIa [9] worked out at 60 nM.
Regarding “Motavizumab with Fc variant FcMut197 (H285N_T307Q_N315D) (antibody)”, the TRIM21 binding EC50, fold of WT EC50 in assay [1] is below 1.5 fold. Besides, in assay [2], the kd (fold decrease*) amounted to 9.1 fold, the koff (fold decrease*) was determined as 3 fold and the kon (fold increase*) stood at 2.9 fold. In assay [3], this substance came in with an EC50 of 12300 ng/mL.
For “Motavizumab with Fc variant FcMut213 (H285D_T307Q_A378V) (antibody)”, the TRIM21 binding EC50, fold of WT EC50 in [1] is below 1.5 fold. Further, in assay [2], the kd (fold decrease*) turned out to be 13.2 fold, the koff (fold decrease*) came to 3.3 fold and the kon (fold increase*) was 3.8 fold. In addition, the EC50 in assay [3] turned out to be 10500 ng/mL.
On to “Rituximab with Fc variant FcMut213 (H285D_T307Q_A378V) (antibody)”, for which, in the assay with FcγRIIIa [6], the EC50 (ADCC reporter bioassay, CD20+ WIL2-S target cells) was 4.01 ng/mL. For the same substance, the EC50 (CDC, CD20+ Raji cells with guinea pig complement) in assay [7] was 0.267 ng/mL.
In the same order, the values of “Rituximab with Fc variant FcMut229 (T256D_H285D_T307R_Q311V_A378V) (antibody)” are 3.07 ng/mL and 0.14 ng/mL.
As for YTE (Medimmune) (antibody), in [2], the kd (fold decrease*) amounted to 8.5 fold, the koff (fold decrease*) came to 3.6 fold and the kon (fold increase*) was found to be 2.3 fold. The same substance showed an EC50 in assay [3] of 10100 ng/mL.
Take WT (antibody): the EC50 (read off the curve) with FcγRIIIa [9] came to 40 nM; in the assay with FcγRIIIa [10], 3000 ng/mL. Besides, in [4], the Kd stood at 862 nM. Further, in [5], the IC50 (read off the curve) worked out at 300 nM. Moreover, the EC50 (ADCC reporter bioassay, CD20+ WIL2-S target cells) in the assay with FcγRIIIa [6] was 6.14 ng/mL. Further, the EC50 (CDC, CD20+ Raji cells with guinea pig complement) in assay [7] was found to be 0.715 ng/mL.
In turn, “Rituximab with Fc variant FcMut228 (T256D_N286D_T307R_Q311V_A378V) (antibody)” returned an EC50 (ADCC reporter bioassay, CD20+ WIL2-S target cells) with FcγRIIIa [6] of 2.66 ng/mL. The EC50 (CDC, CD20+ Raji cells with guinea pig complement) in assay [7] was 0.22 ng/mL.
“Motavizumab with Fc variant FcMut045 (T256D_T307R_Q311V) (antibody)” yielded a TRIM21 binding EC50, fold of WT EC50 in [1] below 1.5 fold. Further, in assay [2], the kd (fold decrease*) amounted to 5.9 fold, the koff (fold decrease*) worked out at 2.6 fold and the kon (fold increase*) was found to be 2.3 fold. In [3], this substance displayed an EC50 of 7730 ng/mL.
